Test results published in patent publication US20090324602A1 (Biogen, published 2009).
Positions count from the first letter of the chain named. Names and notes keep the numbering of the source. Values joined by “and” are separate entries in the source; they are usually repeats but may differ in a detail not shown here. Equal entries are not always repeated. Where two headings read alike, the source gives them in different places. Blank lines part the entries; values can stand above or below the binder they belong to.

Columns and labels:
[1] = biological target: T1, human Fn14 R56K, expressed on the cell surface (human, UniProt Q9NP84 28-129); test: FACS direct binding, cells expressing the huFn14 construct, MFI
T1 construct: also called pYL397
Source text: (§1) A panel of huFn14 point mutants was made by substituting Xenopus residues into the human sequence at a number positions by site-directed mutagenesis on the pEAG2121 template (EBV expression vector for huFn14): pYL391 T33Q, pYL392 S40R, pYL393 L65Q, pYL396 M50A, pYL397 R56K, pYL398 R56P (a more drastic substitution than the Xenopus change) and pYL399 H60K.

[2] = biological target: T2, human Fn14 M50A, expressed on the cell surface (human, UniProt Q9NP84 28-129); test: as above
T2 construct: also called pYL396
Source text: as §1

[3] = biological target: T3, mouse Fn14, full-length, expressed on the cell surface (mouse, UniProt Q9CR75 28-129); test: FACS direct binding titration on murine surface Fn14 (target per legend paragraph 91), MFI
T3 construct: also called murine Fn14; mu Fn14
Source text: (§2) Cells were used in FACS at 2 days post-transfection, staining with monoclonal antibodies of interest (with dilution titration) and gating on green EGFP-positive living cells.

[4] = biological target: T4, rat Fn14, full-length, expressed on the cell surface (rat, UniProt Q9CR75 28-129 (mouse entry)); test: direct binding FACS
T4 construct: also called pEAG2275
Source text: as §2, §1

[5] = biological target: T3, mouse Fn14, full-length, expressed on …; test: FACS titration on cells expressing surface Fn14, MFI against ng/ml anti-Fn14 mab
Source text: as §2

[6] = biological target: T5, cynomolgus monkey Fn14, full-length, expressed on the cell surface (cynomolgus monkey, UniProt Q9NP84 28-129 (human entry)); test: FACS direct binding titration on surface Fn14, MFI
T5 construct: also called cyno Fn14; pEAG2120
Source text: as §2

[7] = biological target: T6, human Fn14 W42A, expressed on the cell surface (human, UniProt Q9NP84 28-129); test: FACS direct binding, cells expressing the huFn14 construct, MFI
T6 construct: also called huFn14 W42A; pEAG2251
Source text: as §1

[8] = biological target: T7, human Fn14 L65Q, expressed on the cell surface (human, UniProt Q9NP84 28-129); test: as above
T7 construct: also called pYL393
Source text: as §1

[9] = biological target: T8, human Fn14 H60K, expressed on the cell surface (human, UniProt Q9NP84 28-129); test: as above
T8 construct: also called pYL399
Source text: as §1

[10] = biological target: T9, human Fn14 S40R, expressed on the cell surface (human, UniProt Q9NP84 28-129); test: as above
T9 construct: also called pYL392
Source text: as §1

[11] = biological target: T10, human Fn14 R56P, expressed on the cell surface (human, UniProt Q9NP84 28-129); test: as above
T10 construct: also called pYL398
Source text: as §1

[12] = biological target: T11, human Fn14 T33Q, expressed on the cell surface (human, UniProt Q9NP84 28-129); test: as above
T11 construct: also called pYL391
Source text: as §1

[13] = biological target: T2, human Fn14 M50A, expressed on the cell …; test: as above; remark: listed apart in the source
Source text: as §1

[14] = biological target: T12, huFn14-huFc fusion protein (human, UniProt Q9NP84 28-80); test: competition ELISA on coated huFn14-huFc against a constant amount of biotinylated murine P4A8, OD450; value is C (midpoint) of the printed 4-P fit, x in ng/ml
T12 construct: also called hFn14-hFc; bivalent Fn14-Fc; not shown: human Fc

[15] = biological target: T13, human Fn14, full-length, expressed on the cell surface (human, UniProt Q9NP84 28-129); test: FACS dilution titration on 293E cells transiently overexpressing human Fn14; value is C (midpoint) of the printed 4-P fit y=(A-D)/(1+(x/C)^B)+D, x in ug/ml
T13 construct: Also used for Fn14 on tumour cell lines (WiDr, A375) and in tissue sections; also called huFn14; hu Fn14

[16] = biological target: T14, soluble monomeric human Fn14 protein (ectodomain with myc and His tags) (human); test: SPR (Biacore), antibody amine-coupled on CM5, soluble monomeric human Fn14 0.3-30 nM as analyte, KD = kd/ka
T14 construct: also called soluble Fn14 protein; soluble human Fn14
Procedure: (§3) Briefly, proteins were diluted to 30 μg/ml in 10 mM acetate, pH 5.0 and 10 μl was injected over chip surfaces that had been activated with a 10 μl injection of 1:1 N-hydroxsuccinimide (NHS): 1-Ethyl-3(3-dimethylaminopropyl)-carbodiimide hydrochloride (EDC). In addition one flow cell in each experiment was left underivitized as a background control. Excess free amine groups were then capped with a 50 μl injection of 1 M Ethanolamine. Typical immobilization levels were ˜1200 RU.
(§4) Concentration series ranging from 0.3 to 30 nM, of human Fn14 were prepared in Biacore buffer #1 (10 mM HEPES pH 7.0+150 mM NaCl+3.4 mM EDTA+0.005% P-20 detergent+0.05% BSA). The amino acid sequence of the soluble Fn14 protein used in these experiments was [sequence] [sequence]. Samples were run over antibody and control surfaces in non-sequential order at a flow rate of 50 μl/min for 5 minutes followed by 15 minutes dissociation in Biacore buffer #1. After each cycle the chip was regenerated with 15 mM NaOH.
(§5) Raw data were normalized by setting the preinjection response to zero on the Y-axis and the injection start to zero on the X-axis for each concentration series. Data were further normalized by subtracting the response on the underivitized surface from the response on the active surfaces and then subtracting the buffer only response on the active surface from the binding data on the same surface (so-called ‘double referencing’ of the data). The global association and dissociation rate constants were then determined for each concentration series by fitting the data using a Marquardt-Levenberg algorithm for 1:1 binding within the Biaevaluation software. The affinity constant was calculated from the ratio of the rate constants (KD=kd/kₐ).

[17] = biological target: T13, human Fn14, full-length, expressed on …; test: FACS direct binding titration on surface human Fn14; value is C (midpoint) of the printed 4-P fit y=(A-D)/(1+(x/C)^B)+D, x in ng/ml
Source text: as §2

[18] = biological target: T14, soluble monomeric human Fn14 protein …; test: SPR (Biacore), antibody amine-coupled on CM5, soluble monomeric human Fn14 0.3-30 nM as analyte, 1:1 fit
Procedure: as §3, §4, §5

[19] = biological target: T4, rat Fn14, full-length, expressed on the …; test: FACS direct binding titration on surface rat Fn14; value is C (midpoint) of the printed 4-P fit y=(A-D)/(1+(x/C)^B)+D, x in ng/ml
Source text: as §2

[20] = biological target: T13, human Fn14, full-length, expressed on …; test: FACS on WiDr cells
mouse Fn14-mouse Fc = biological target: T15, mouse Fn14-mouse Fc (mouse, UniProt Q9CR75 28-80); test: direct binding ELISA, mouse Fn14-mouse Fc coated at 2 µg/ml, HRP-goat anti-human IgG
T15 construct: not shown: mouse Fc

B1: monoclonal antibody 1.P4A8.3C7 (P4A8), murine (antibody, V domains shown)
VH: QVQLQQSGPEVVRPGVSVKISCKGSGYTFTDYGMHWVKQSHAKSLEWIGVISTYNGYTNYNQKFKGKATMTVDKSSSTAYMELARLTSEDSAIYYCARAYYGNLYYAMDYWGQGTSVTVSS
VL: DIVLTQSPASLAVSLGQRATISCRASKSVSTSSYSYMHWYQQKPGQPPKLLIKYASNLESGVPARFSGSGSGTDFILNIHPVEEEDAATYYCQHSRELPFTFGSGTKLEIK
notes: Mouse hybridoma mAb (ATCC PTA-9947); also called muP4A8; murine P4A8 mAb
binding result [1]: binds | binding result [2]: binds

B2: monoclonal antibody P3D8, murine (antibody, V domains shown)
VH: not shown
VL: B1 VL with A55T, F100W, S104G
EC50 [3]: 0.00238 µg/mL | binding result [4]: binds

B5: humanized P4A8 (H1/L2) huIgG1, kappa (antibody, V domains shown)
VH: QVQLVQSGAEVKKPGASVKVSCKGSGYTFTDYGMHWVRQAPGQGLEWMGVISTYNGYTNYNQKFKGRVTMTVDKSTSTAYMELRSLRSDDTAVYYCARAYYGNLYYAMDYWGQGTLVTVSS
VL: DIVLTQSPASLAVSLGQRATISCRASKSVSTSSYSYMHWYQQKPGQPPKLLIKYASNLESGVPARFSGSGSGTDFILNIHPMEEDDTAMYFCQHSRELPFTFGGGTKLEIKR
notes: One of the 'six versions of huP4A8' (two heavy chains by three light chains) expressed transiently in 293E cells; also called version of huP4A8 H1/L2
IC50 [14]: 0.0408 µg/mL | EC50 [15]: 0.178 µg/mL

B6: humanized P4A8 (H2/L2) huIgG1, kappa (antibody, V domains shown)
VH: B5 VH with M48I, V68A
VL: B5 VL
notes: One of the 'six versions of huP4A8'; also called version of huP4A8 H2/L2
IC50 [14]: 0.0326 µg/mL | EC50 [15]: 0.179 µg/mL

B8: humanized P4A8 (H2/L1) huIgG1, kappa (antibody, V domains shown)
VH: B5 VH with M48I, V68A
VL: B5 VL with I76S
notes: One of the 'six versions of huP4A8'; also called version of huP4A8 H2/L1
IC50 [14]: 0.0275 µg/mL | EC50 [15]: 0.175 µg/mL

B9: humanized P4A8 (H2/L3) huIgG1, kappa (antibody, V domains shown)
VH: B5 VH with M48I, V68A
VL: B5 VL with M89T, F91Y
notes: One of the 'six versions of huP4A8'; also called version of huP4A8 H2/L3
IC50 [14]: 0.0357 µg/mL | EC50 [15]: 0.175 µg/mL

B10: humanized P4A8 (H1/L3) huIgG1, kappa (antibody, V domains shown)
VH: B5 VH
VL: B5 VL with M89T, F91Y
notes: One of the 'six versions of huP4A8'; also called version of huP4A8 H1/L3
IC50 [14]: 0.0316 µg/mL | EC50 [15]: 0.172 µg/mL

The remaining lines, values ahead:

EC50 [3]: 0.00226 µg/mL | EC50 [5]: 0.00478 µg/mL | binding result [4]: binds
B3: monoclonal antibody 1.P2D3.3D5 (P2D3), murine (antibody, V domains shown)
VH: not shown
VL: B1 VL with A55T, F100W, S104G
notes: Mouse hybridoma mAb (ATCC PTA-9948)

EC50 [3]: 0.00201 µg/mL | EC50 [6]: 0.00119 µg/mL | binding result [4]: binds | binding result [7]: binds | binding result [8]: binds | binding result [9]: binds | binding result [10]: binds | binding result [11]: binds | binding result [12]: binds | binding result [13]: binds
B4: monoclonal antibody 1.P3G5.1E4 (P3G5), murine (antibody, V domains shown)
VH: B1 VH with M34I
VL: B1 VL with S26N
notes: Mouse hybridoma mAb (ATCC PTA-9949)

IC50 [14]: 0.0352 µg/mL | Kd [16]: 2.6 nM and 1.7 nM | EC50 [17]: 0.0766 µg/mL | koff [18]: 0.0029 s⁻¹ and 0.003 s⁻¹ | kon [18]: 1.7e+06 M⁻¹ s⁻¹ and 1.8e+06 M⁻¹ s⁻¹ | EC50 [15]: 0.25 µg/mL | EC50 [19]: 0.0586 µg/mL | EC50 [20]: 0.12 nM | EC50 (mouse Fn14-mouse Fc): ~0.00679 µg/mL
B7: humanized P4A8 (H1/L1) huIgG1, kappa (antibody)
heavy: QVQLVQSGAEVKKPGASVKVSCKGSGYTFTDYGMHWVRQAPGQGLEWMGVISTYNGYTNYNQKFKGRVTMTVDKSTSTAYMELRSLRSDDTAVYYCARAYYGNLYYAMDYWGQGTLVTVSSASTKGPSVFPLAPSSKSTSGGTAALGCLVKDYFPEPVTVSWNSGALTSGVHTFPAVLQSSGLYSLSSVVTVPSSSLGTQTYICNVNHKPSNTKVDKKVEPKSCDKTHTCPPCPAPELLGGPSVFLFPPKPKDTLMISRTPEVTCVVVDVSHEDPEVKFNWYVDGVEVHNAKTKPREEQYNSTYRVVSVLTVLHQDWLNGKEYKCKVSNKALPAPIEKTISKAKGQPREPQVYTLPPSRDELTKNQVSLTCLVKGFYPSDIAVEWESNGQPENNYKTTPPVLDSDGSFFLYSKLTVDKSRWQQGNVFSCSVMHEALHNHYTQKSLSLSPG
light: DIVLTQSPASLAVSLGQRATISCRASKSVSTSSYSYMHWYQQKPGQPPKLLIKYASNLESGVPARFSGSGSGTDFSLNIHPMEEDDTAMYFCQHSRELPFTFGGGTKLEIKRTVAAPSVFIFPPSDEQLKSGTASVVCLLNNFYPREAKVQWKVDNALQSGNSQESVTEQDSKDSTYSLSSTLTLSKADYEKHKVYACEVTHQGLSSPVTKSFNRGEC
notes: H1 heavy chain (pYL310) with L1 kappa light chain (pYL321); also called huP4A8; hP4A8.IgG1

Kd [16]: 3.4 nM and 2.2 nM | EC50 [17]: 0.0916 µg/mL | koff [18]: 0.0029 s⁻¹ and 0.0047 s⁻¹ | kon [18]: 2e+06 M⁻¹ s⁻¹ and 2.9e+06 M⁻¹ s⁻¹ | EC50 [19]: 0.0721 µg/mL
B11: humanized P4A8 (H1/L1) aglycosylated S228P/T299A huIgG4, kappa (antibody)
heavy: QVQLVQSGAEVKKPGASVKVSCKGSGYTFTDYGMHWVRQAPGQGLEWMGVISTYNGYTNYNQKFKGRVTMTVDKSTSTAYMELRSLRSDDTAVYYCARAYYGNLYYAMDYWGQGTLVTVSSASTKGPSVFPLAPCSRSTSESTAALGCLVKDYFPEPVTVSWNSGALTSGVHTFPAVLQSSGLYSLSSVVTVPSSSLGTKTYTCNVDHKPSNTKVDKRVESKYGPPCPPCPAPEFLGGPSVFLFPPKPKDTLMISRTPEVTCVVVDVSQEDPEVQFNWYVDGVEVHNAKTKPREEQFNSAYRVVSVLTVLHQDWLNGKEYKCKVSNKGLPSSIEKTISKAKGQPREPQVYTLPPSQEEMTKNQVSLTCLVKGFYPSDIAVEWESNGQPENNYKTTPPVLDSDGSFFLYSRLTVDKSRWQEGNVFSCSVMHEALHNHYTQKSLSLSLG
light: B7 light
notes: also called huP4A8-aglyG4P; hP4A8.IgG4Pagly
